In patent US20070275900A1:

Target: purified CD26 (dipeptidyl-peptidase IV, EC 3.4.14.5) (human) (UniProt P27487)
Assay: cell-based or functional assay

Chain of purified CD26 (dipeptidyl-peptidase IV, EC 3.4.14.5) (human) (P27487 whole entry, form in doubt): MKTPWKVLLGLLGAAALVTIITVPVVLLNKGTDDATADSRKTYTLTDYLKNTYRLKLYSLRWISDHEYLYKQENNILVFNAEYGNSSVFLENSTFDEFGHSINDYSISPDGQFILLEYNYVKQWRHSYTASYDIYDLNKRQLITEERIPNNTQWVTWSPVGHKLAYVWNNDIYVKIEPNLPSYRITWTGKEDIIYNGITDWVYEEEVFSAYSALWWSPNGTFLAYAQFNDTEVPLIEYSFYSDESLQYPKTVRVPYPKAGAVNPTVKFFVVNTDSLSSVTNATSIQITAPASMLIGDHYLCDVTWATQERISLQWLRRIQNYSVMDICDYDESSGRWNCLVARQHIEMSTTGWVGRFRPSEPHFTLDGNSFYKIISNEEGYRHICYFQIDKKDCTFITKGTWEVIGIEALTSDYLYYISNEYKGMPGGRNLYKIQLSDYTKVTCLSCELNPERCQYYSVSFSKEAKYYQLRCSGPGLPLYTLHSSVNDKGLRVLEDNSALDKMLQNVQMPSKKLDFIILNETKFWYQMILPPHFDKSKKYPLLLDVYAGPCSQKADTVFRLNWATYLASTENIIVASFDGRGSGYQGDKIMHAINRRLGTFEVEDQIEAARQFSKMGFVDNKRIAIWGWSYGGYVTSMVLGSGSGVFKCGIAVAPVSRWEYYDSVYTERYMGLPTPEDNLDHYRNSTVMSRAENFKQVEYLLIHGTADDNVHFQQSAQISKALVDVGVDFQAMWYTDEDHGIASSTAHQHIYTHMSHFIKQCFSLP

Diprotin A (peptide)
inhibition of conversion of 50 µM CAM-405 to CAM-212 by purified CD26, 100 µM diprotin A: > 50%
